Target: T1, Pr(brC)2 (UniProt P03069 226-249+=GC, internal_change)
T1 chain: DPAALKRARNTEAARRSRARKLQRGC
Assay: EMSA

B1: Random (dsDNA)
DNA 1: AGCGCACGTCCTGCACGTC
DNA 2: GACGTGCAGGACGTGCGCT
B1: no binding.

Source: publication PMC8979313
